Laboratory results published in patent US20170137467A1 (CHROMOTEK, published 2017).
Numbering of substitutions follows the chain as printed. Square brackets hold non-standard residues; d marks the D form. GABA = NCCCC(=O)O

T1: BC2T A5K (human)
T1 construct: position 5 library, row K
T1 peptide: Ac-PDRKKAVSHWQQ-NH2

T2: BC2T K4W (human)
T2 construct: position 4 library, row W
T2 peptide: Ac-PDRWAAVSHWQQ-NH2

T3: BC2T K4F (human)
T3 construct: position 4 library, row F
T3 peptide: Ac-PDRFAAVSHWQQ-NH2

T4: BC2T K4N (human)
T4 construct: position 4 library, row N
T4 peptide: Ac-PDRNAAVSHWQQ-NH2

T5: BC2T V7C(Abu) (human, also: Abu described as gamma-amino butyric acid)
T5 construct: position 7 library, row C(Abu) / C*
T5 peptide: Ac-PDRKAA[GABA]SHWQQ-NH2

T6: BC2T D2E (human)
T6 construct: position 2 library, row E
T6 peptide: Ac-PERKAAVSHWQQ-NH2

T7: BC2T V7P (human)
T7 construct: position 7 library, row P
T7 peptide: Ac-PDRKAAPSHWQQ-NH2

T8: BC2T P1D (human)
T8 construct: position 1 library, row D
T8 peptide: Ac-DDRKAAVSHWQQ-NH2

T9: BC2T R3N (human)
T9 construct: position 3 library (BC2TR3X), row N
T9 peptide: Ac-PDNKAAVSHWQQ-NH2

T10: BC2T R3F (human)
T10 construct: position 3 library (BC2TR3X), row F
T10 peptide: Ac-PDFKAAVSHWQQ-NH2

T11: BC2T A6D (human)
T11 construct: position 6 library (BC2TA6X), row D
T11 peptide: Ac-PDRKADVSHWQQ-NH2

T12: BC2T K4D (human)
T12 construct: position 4 library, row D
T12 peptide: Ac-PDRDAAVSHWQQ-NH2

T13: BC2T R3Q (human)
T13 construct: position 3 library (BC2TR3X), row Q
T13 peptide: Ac-PDQKAAVSHWQQ-NH2

T14: BC2T A5C(Abu) (human, SMILES …)
T14 construct: position 5 library, row C(Abu) / C*
T14 peptide: Ac-PDRK[GABA]AVSHWQQ-NH2

T15: BC2T A6T (human)
T15 construct: position 6 library (BC2TA6X), row T
T15 peptide: Ac-PDRKATVSHWQQ-NH2

T16: BC2T D2Q (human)
T16 construct: position 2 library, row Q
T16 peptide: Ac-PQRKAAVSHWQQ-NH2

T17: BC2T K4R (human)
T17 construct: position 4 library, row R
T17 peptide: Ac-PDRRAAVSHWQQ-NH2

T18: BC2T K4Q (human)
T18 construct: position 4 library, row Q
T18 peptide: Ac-PDRQAAVSHWQQ-NH2

T19: BC2T V7E (human)
T19 construct: position 7 library, row E
T19 peptide: Ac-PDRKAAESHWQQ-NH2

T20: BC2T A5D (human)
T20 construct: position 5 library, row D
T20 peptide: Ac-PDRKDAVSHWQQ-NH2

T21: BC2T D2R (human)
T21 construct: position 2 library, row R
T21 peptide: Ac-PRRKAAVSHWQQ-NH2

T22: BC2T K4T (human)
T22 construct: position 4 library, row T
T22 peptide: Ac-PDRTAAVSHWQQ-NH2

B1: BC2 nanobody (BC2-Nb) (VHH)
VHH: QVQLVESGGGLVQPGGSLTLSCTASGFTLDHYDIGWFRQAPGKEREGVSCINNSDDDTYYADSVKGRFTIFMDNAKDTVYLQMNSLKPEDTAIYYCAEARGCKRGRYEYDFWGQGTQVTVSS
notes: immobilised on agarose/sepharose beads in this assay; also called BC2 nanotrap (immobilised form); not shown: C-terminal 6xHis-tag added by pHEN6 vector
B2: BC2-NbR106S (VHH)
VHH: B1 VHH with R106S
notes: immobilised on beads in this assay; not shown: C-terminal 6xHis-tag added by pHEN6 vector

Legend:
Experiment in all cases: library pulldown, LC-MS of supernatant; ratio vs GFP-Nb control (0=captured, 1=not captured)
[1] = molecular target: T1, BC2T A5K
Procedure, shortened: (§1)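 Unbound peptide left in supernatant after 1 h pulldown in PBS/0.01% CHAPS measured by reversed-phase LC-MS (8–30% eluent B gradient, 20 min).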

[2] = molecular target: T2, BC2T K4W
Procedure, shortened: as §1

[3] = molecular target: T3, BC2T K4F
Procedure, shortened: as §1

[4] = molecular target: T4, BC2T K4N
Procedure, shortened: as §1

[5] = molecular target: T5, BC2T V7C(Abu)
Procedure, shortened: as §1

[6] = molecular target: T6, BC2T D2E
Procedure, shortened: as §1

[7] = molecular target: T7, BC2T V7P
Procedure, shortened: as §1

[8] = molecular target: T8, BC2T P1D
Procedure, shortened: as §1

[9] = molecular target: T9, BC2T R3N
Procedure, shortened: as §1

[10] = molecular target: T10, BC2T R3F
Procedure, shortened: as §1

[11] = molecular target: T11, BC2T A6D
Procedure, shortened: as §1

[12] = molecular target: T12, BC2T K4D
Procedure, shortened: as §1

[13] = molecular target: T13, BC2T R3Q
Procedure, shortened: as §1

[14] = molecular target: T14, BC2T A5C(Abu)
Procedure, shortened: as §1

[15] = molecular target: T15, BC2T A6T
Procedure, shortened: as §1

[16] = molecular target: T16, BC2T D2Q
Procedure, shortened: as §1

[17] = molecular target: T17, BC2T K4R
Procedure, shortened: as §1

[18] = molecular target: T18, BC2T K4Q
Procedure, shortened: as §1

[19] = molecular target: T19, BC2T V7E
Procedure, shortened: as §1

[20] = molecular target: T20, BC2T A5D
Procedure, shortened: as §1

[21] = molecular target: T21, BC2T D2R
Procedure, shortened: as §1

[22] = molecular target: T22, BC2T K4T
Procedure, shortened: as §1

| Binder | ratio [1] | ratio [2] | ratio [3] | ratio [4] | ratio [5] | ratio [6] | ratio [7] | ratio [8] | ratio [9] | ratio [10] | ratio [11] | ratio [12] | ratio [13] | ratio [14] | ratio [15] | ratio [16] | ratio [17] | ratio [18] | ratio [19] | ratio [20] | other results |
| --- | --- | --- | --- | --- | --- | --- | --- | --- | --- | --- | --- | --- | --- | --- | --- | --- | --- | --- | --- | --- | --- |
| B1 | 0.2 | 0.3 | 0.3 | 0.5 | 0.2 | 0.2 | 1 | 1 | 0.7 | 0.8 | 1 | 1 | 0.5 | 0.1 | 0.2 | 0.1 | 0.1 | 0.1 | 0.4 | 0.5 | ratio [21]: 0.1; ratio [22]: 0.2 |
| B2 | 0.2 | 0.8 | 0.7 | 0.9 | 0.5 | 0.4 | 1 | 0.8 | 1 | 1 | 1 | 1 | 0.9 | 0.3 | 0.4 | 0.2 | 0.1 | 0.4 | 0.8 | 0.9 | ratio [21]: 0.2; ratio [22]: 0.7 |
